Laboratory results: US20230165982A1 (HOBER BIOTECH, published 2023)

Molecular target: Human epidermal growth factor receptor 2 (HER2) (human, UniProt P04626 23-1255)
Assay: cell-based or functional assay

B1: 99mTc-ADAPT6 (designed binder)
chain: GSSHHHHHHDEAVDANSLAAAKETALYHLDRLGVADAYKDLIDKAKTVEGVKARYFEILHALP
modifications: also: 99mTc(CO)3 chelated by the His6 subsequence (residues 4-9)
  tumor-to-contralateral breast ratio (SPECT), 2 h after injection of 250 µg: 7.8
  tumor-to-contralateral breast ratio (SPECT), patient 17 (tumor later found FISH-negative), 2 h after injection of 1000 µg: 1.33
